{"source": "paper PMC11964265", "about": "“Eating the brain - A multidisciplinary study provides new insights into the mechanisms underlying the cytopathogenicity of Naegleria fowleri” (PLOS Pathogens, 2025)", "proteins": {"B1": {"name": "Naegleria fowleri lysozyme (recombinant) (natural protein)", "chain": "MSSYYTKEQFFRALHQVESKGQLNPPDGDKGRAIGPLQIWEVYWKDSGIQESYQSVRKFEIAKKCVNRFMKRYAENEWGPTMTIDQVEKCARIHNGGPRGHLKPETDDYWERFKEALENLDDEEVVVVEENDNNDDDQDDNEEESKDHRELLKIGMSGADVEEIQQQLADLGYDLGSYGADGKFGKATQQAVMKFQQDHDLAVDGIVGKETRKALNLEKGEDDQEQQEVADDQQEDDDEQQQQQNKDQPQEQDEEETTNEVKEEEQNDDEHEDPQEEEEQQQEDEQEDPQEEQQEDEDQQEDNDEENDQQQEDDDDQEQQQEEEEQEDPQEEEEQQNDDDDQQDDMEEQQDGDDDNDDDDA", "notes": "Cloned into pET42b with NdeI/XhoI sites in the primers; Pentamer by analytical SEC only; also called Nf lysozyme; source: E. coli BL21(DE3), purified (Ni-NTA agarose, native conditions)"}}, "target": "the molecule itself", "test": "SEC; analytical size-exclusion chromatography, Superdex 200 Increase 10/300 GL, 20 mM Tris-HCl, 150 mM NaCl, pH 7.5; mass from calibration with Gel Filtration Standard (Bio-Rad)", "data": [{"protein": "B1", "values": [{"measurement": "stoichiometry N", "result": 5}]}]}
